Results on six molecules are retold here after publication doi:10.1101/2024.03.17.584836 (bioRxiv, 2024).

Values joined by “and” are separate entries in the source; they are usually repeats but may differ in a detail not shown here. Equal entries are not always repeated. Where two headings read alike, the source gives them in different places.

In assay [1] the target is Nrx1β-Fc (neurexin-1β C-terminally fused to human Fc) (UniProt Q63373).
Assay [2] shares this target. The source holds these as a separate data set.
For assay [3] the target is unchanged. The source holds these as a separate data set.
For assay [4] the target is unchanged. The source holds these as a separate data set.
In assay [5] the target is Nlg1-GFP, wild type, in HEK cell lysate (UniProt Q99K10). Briefly: single molecule pull-down with counting of photobleaching steps.
For assay [6], the target named is Nlg1^E584A/L585A-GFP, in HEK cell lysate (UniProt Q99K10). Described as above.
Assay [7] deals with Nrx1β-Fc (neurexin-1β C-terminally fused to human Fc) (UniProt Q63373). Briefly: FRAP of soluble fluorescent protein bound to ligand-coated micropatterns.

In the case of “AP-Nlg1 (AP-tagged Nlg1, full length), expressed in COS-7 cells (from UniProt Q62765 46-843) (receptor)”, in assay [1], the koff of the reaction part of the PSD-95-GFP FRAP curves was 0.005 s⁻¹ and 0.008 s⁻¹.
The term koff denotes the first-order rate constant of dissociation. Read a high koff as a short-lived complex. In assay [2], “HA-Nlg1-GFP (-21), wild type, expressed in COS-7 cells (from UniProt Q99K10 46-843) (receptor)” returned an enrichment level E (fluorescence on ligand stripes / PEG lines) of 2.3. The off-rate constant (koff) in assay [3] turned out to be 0.004 s⁻¹.
Consider “HA-Nlg1^E584A/L585A-GFP (-21), expressed in COS-7 cells (from UniProt Q99K10 46-843) (receptor)”, for which, in assay [4], the enrichment level E (fluorescence on ligand stripes / PEG lines) came to 2.5.
Usually stoichiometry N stands for the number of molecules, sites or subunits per partner or assembly. With “Nlg1-GFP, wild type, in HEK cell lysate (from UniProt Q99K10 46-843) (receptor)”, the stoichiometry N in assay [5] worked out at 2.
For the molecule “Nlg1^E584A/L585A-GFP, in HEK cell lysate (from UniProt Q99K10 46-843) (receptor)”, the percent in a monomeric form (1 photobleaching step) in assay [6] is 55%.

B1: Nlg1-HaloTag-AF488 (purified dimeric Nlg1 C-terminally fused to Halo-tag, conjugated to AF488) (other)
chain: QKLDDVDPLVTTNFGKIRGIKKELNNEILGPVIQFLGVPYAAPPTGEHRFQPPEPPSPWSDIRNATQFAPVCPQNIIDGRLPEVMLPVWFTNNLDVVSSYVQDQSEDCLYLNIYVPTEDVKRISKECARKPGKKICRKGDIRDSGGPKPVMVYIHGGSYMEGTGNLYDGSVLASYGNVIVITVNYRLGVLGFLSTGDQAAKGNYGLLDLIQALRWTSENIGFFGGDPLRITVFGSGAGGSCVNLLTLSHYSEGNRWSNSTKGLFQRAIAQSGTALSSWAVSFQPAKYARILATKVGCNVSDTVELVECLQKKPYKELVDQDVQPARYHIAFGPVIDGDVIPDDPQILMEQGEFLNYDIMLGVNQGEGLKFVENIVDSDDGVSASDFDFAVSNFVDNLYGYPEGKDVLRETIKFMYTDWADRHNPETRRKTLLALFTDHQWVAPAVATADLHSNFGSPTYFYAFYHHCQTDQVPAWADAAHGDEVPYVLGIPMIGPTELFPCNFSKNDVMLSAVVMTYWTNFAKTGDPNQPVPQDTKFIHTKPNRFEEVAWTRYSQKDQLYLHIGLKPRVKEHYRANKVNLWLELVPHLHNLNDISQYTSTTTKVPSTDITLRPTRKNSTPVTSAFPTAKQDDPKQQPSPFSVDQRDYSTELS
modifications: HaloTag-Alexa488 ligand (Promega G1002) coupled to the HaloTag
On to B1, for which the koff in assay [7] is roughly 0.0015 s⁻¹.
